Experimental data from publication doi:10.1101/2021.05.13.443999.

Biological target: p47^phox (human (endogenous in HEK-293 and in human midbrain)) (UniProt P14598)
Assay: proximity ligation

UniProt P14598, sequence (P14598 whole entry): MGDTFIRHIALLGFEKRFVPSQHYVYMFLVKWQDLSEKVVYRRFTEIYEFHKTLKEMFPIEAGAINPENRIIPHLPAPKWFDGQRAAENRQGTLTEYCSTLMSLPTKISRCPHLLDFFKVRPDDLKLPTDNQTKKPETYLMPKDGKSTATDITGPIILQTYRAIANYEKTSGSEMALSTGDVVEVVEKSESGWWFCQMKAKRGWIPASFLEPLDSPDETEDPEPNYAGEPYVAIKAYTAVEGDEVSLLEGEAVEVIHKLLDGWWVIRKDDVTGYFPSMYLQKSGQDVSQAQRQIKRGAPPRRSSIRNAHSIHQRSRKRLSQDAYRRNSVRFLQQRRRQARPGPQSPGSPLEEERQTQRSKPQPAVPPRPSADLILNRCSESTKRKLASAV

IC50: 700 nM
Substance: NOX2 docking sequence (Nox2ds)-tat (peptide)
